Test system: engineered chimeric receptor SEQ ID NO: 33 and its mutants (human α7-nAChR ligand binding domain / human GlyRα1 ion pore domain) in Lenti-X 293T cells
Assay: YFP fluorescence quenching anion reporter plate reader assay (percent quench, EC50)
Type: cell-based
Settings: for YFP fluorescence quenching using CNL001 (percent quench): receptor named in row; for YFP fluorescence quenching using Varenicline, 3 nM var: ligand Varenicline 3 nM; for YFP fluorescence quenching using Varenicline, 30 nM var: ligand Varenicline 30 nM; for YFP fluorescence quenching using Varenicline, 300 nM var: ligand Varenicline 300 nM; for YFP fluorescence quenching using Varenicline, 500 nM var: ligand Varenicline 500 nM; for YFP fluorescence quenching using Varenicline, 1 uM var: ligand Varenicline 1 uM
How it was run: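 Lenti-X 293T cells co-expressing an anion-quenchable YFP were transiently transfected with receptor DNA, then ligand was added in NaI-substituted buffer (pH 7.2) after 30 min at 37 °C. Fluorescence was read about 2 min; percent quench = mean of last 10 s over 15 s pre-ligand baseline.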

B1: CODA409: engineered receptor: Y210W in SEQ ID NO: 33 (protein)
chain: MRCSPGGVWLALAASLLHVSLQGEFQRKLYKELVKNYNPLERPVANDSQPLTVYFSLSLLQIMDVDEKNQVLTTNIWLQMSWTDHYLQWNVSEYPGVKTVRFPDGQIWKPDILLYNSADERFDATFHTNVLVNSSGHCQYLPPGIFKSSCPMDLKNFPMDVQTCKLKFGSWSYGGWSLDLQMQEADISGYIPNGEWDLVGIPGKRSERFWECCKEPYPDVTFTVTMRRRMGYYLIQMYIPSLLIVILSWISFWINMDAAPARVGLGITTVLTMTTQSSGSRASLPKVSYVKAIDIWMAVCLLFVFSALLEYAAVNFVSRQHKELLRFRRKRRHHKSPMLNLFQEDEAGEGRFNFSAYGMGPACLQAKDGISVKGANNSNTTNPPPAPSKSPEEMRKLFIQRAKKIDKISRIGFPMAFLIFNMFYWIIYKIVRREDVHNQ
modifications: synthetic sequence of chimeric LGIC
1 nM CNL001, first column so headed
  YFP fluorescence quenching using CNL001 (percent quench): −8.914%
1 nM CNL001, second column so headed
  YFP fluorescence quenching using CNL001 (percent quench): −14.319%
1 nM brd (TC-5619/Bradanicline)
  YFP fluorescence quenching using TC-5619/Bradanicline (percent quench): −13.45%
3 nM brd (TC-5619/Bradanicline)
  YFP fluorescence quenching using TC-5619/Bradanicline (percent quench): −0.64%
10 nM CNL001, first column so headed
  YFP fluorescence quenching using CNL001 (percent quench): −1.444%
10 nM CNL001, second column so headed
  YFP fluorescence quenching using CNL001 (percent quench): 4.393%
10 nM brd (TC-5619/Bradanicline)
  YFP fluorescence quenching using TC-5619/Bradanicline (percent quench): 37.3%
30 nM brd (TC-5619/Bradanicline)
  YFP fluorescence quenching using TC-5619/Bradanicline (percent quench): 76.36%
50 nM CNL001, first column so headed
  YFP fluorescence quenching using CNL001 (percent quench): 11.897%
50 nM CNL001, second column so headed
  YFP fluorescence quenching using CNL001 (percent quench): 11.434%
50 nM abt (ABT-126)
  YFP fluorescence quenching using ABT-126 (percent quench): 8.23%
100 nM CNL001, first column so headed
  YFP fluorescence quenching using CNL001 (percent quench): 12.719%
100 nM CNL001, second column so headed
  YFP fluorescence quenching using CNL001 (percent quench): 16.053%
100 nM CNL002
  YFP fluorescence quenching (percent quench): −14.92%
100 nM abt (ABT-126)
  YFP fluorescence quenching using ABT-126 (percent quench): 55.53%
100 nM azd0328
  YFP fluorescence quenching using AZD-0328 (percent quench): −6.57%
100 nM brd (TC-5619/Bradanicline)
  YFP fluorescence quenching using TC-5619/Bradanicline (percent quench): 72.72%
300 nM abt (ABT-126)
  YFP fluorescence quenching using ABT-126 (percent quench): 74.82%
300 nM azd0328
  YFP fluorescence quenching using AZD-0328 (percent quench): −4.84%
300 nM brd (TC-5619/Bradanicline)
  YFP fluorescence quenching using TC-5619/Bradanicline (percent quench): 75.47%
500 nM abt (ABT-126)
  YFP fluorescence quenching using ABT-126 (percent quench): 77.39%
1 uM CNL001, first column so headed
  YFP fluorescence quenching using CNL001 (percent quench): 14.077%
1 uM CNL001, second column so headed
  YFP fluorescence quenching using CNL001 (percent quench): 15.495%
1 uM CNL002
  YFP fluorescence quenching (percent quench): −0.85%
1 uM abt (ABT-126)
  YFP fluorescence quenching using ABT-126 (percent quench): 77.77%
1 uM brd (TC-5619/Bradanicline)
  YFP fluorescence quenching using TC-5619/Bradanicline (percent quench): 78.73%
3 uM abt (ABT-126)
  YFP fluorescence quenching using ABT-126 (percent quench): 69.33%
10 uM abt (ABT-126)
  YFP fluorescence quenching using ABT-126 (percent quench): 74.79%
10 uM ach (acetylcholine)
  YFP fluorescence quenching (percent quench): −5.43%
30 uM CNL002
  YFP fluorescence quenching (percent quench): 29.62%
30 uM abt (ABT-126)
  YFP fluorescence quenching using ABT-126 (percent quench): 75.61%
30 uM azd0328
  YFP fluorescence quenching using AZD-0328 (percent quench): 81.64%
50 uM abt (ABT-126)
  YFP fluorescence quenching using ABT-126 (percent quench): 75.72%
100 uM abt (ABT-126)
  YFP fluorescence quenching using ABT-126 (percent quench): 78.52%
100 uM ach (acetylcholine)
  YFP fluorescence quenching (percent quench): 17.14%
1 mM ach (acetylcholine)
  YFP fluorescence quenching (percent quench): 78.84%
3 mM ach (acetylcholine)
  YFP fluorescence quenching (percent quench): 78.55%
Ligand Facinicline 30 nM
  YFP fluorescence quenching using Facinicline, 30 nM fac: −10.93
Ligand Facinicline 300 nM
  YFP fluorescence quenching using Facinicline, 300 nM fac: −5.82
Ligand Facinicline 10 uM
  YFP fluorescence quenching using Facinicline, 10 uM fac: 60.97
Ligand Facinicline 30 uM
  YFP fluorescence quenching using Facinicline, 30 uM fac: 57.77
Ligand TC-6987 1 uM
  YFP fluorescence quenching using TC-6987, 1 uM tc6987: 62.82
Ligand TC-6987 10 uM
  YFP fluorescence quenching using TC-6987, 10 uM tc6987: 78.66
Ligand TC-6987 500 uM
  YFP fluorescence quenching using TC-6987, 500 uM tc6987: 70.35
First column
  YFP fluorescence quenching using Varenicline, 3 nM var: 7.776
  YFP fluorescence quenching using Varenicline, 30 nM var: −5.568
  YFP fluorescence quenching using Varenicline, 300 nM var: 2.815
  YFP fluorescence quenching using Varenicline, 500 nM var: 1.766
  YFP fluorescence quenching using Varenicline, 1 uM var: 1.844
Second column
  YFP fluorescence quenching using Varenicline, 3 nM var: −2.964
  YFP fluorescence quenching using Varenicline, 30 nM var: 3.024
  YFP fluorescence quenching using Varenicline, 300 nM var: 3.06
  YFP fluorescence quenching using Varenicline, 500 nM var: 2.819
  YFP fluorescence quenching using Varenicline, 1 uM var: −4.059

Source: patent publication US20250152742A1, “COMPOSITIONS AND METHODS FOR NEUROLOGICAL DISEASES” (Trames Bio, Inc., priority 2022, published 2025)
